Paper PMC5818064

Biological target: RBD–GFP11 (Rho-binding domain of Rhotekin fused to GFP β-strand 11) (UniProt Q8C6B2)
Experiment: split reporter (BiFC, NanoBiT); tripartite split-GFP; HEK_GFP1-9 cells stably expressing GFP1-9, transiently co-transfected with GFP10 and GFP11 fusions (1:1); fixed, double immunostaining with anti-GFP10 and anti-GFP11; flow cytometry, mean GFP fluorescence in the GFP10+ GFP11+ gate

Chain of UniProt Q8C6B2 (Q8C6B2 whole entry, the tested form may be a part): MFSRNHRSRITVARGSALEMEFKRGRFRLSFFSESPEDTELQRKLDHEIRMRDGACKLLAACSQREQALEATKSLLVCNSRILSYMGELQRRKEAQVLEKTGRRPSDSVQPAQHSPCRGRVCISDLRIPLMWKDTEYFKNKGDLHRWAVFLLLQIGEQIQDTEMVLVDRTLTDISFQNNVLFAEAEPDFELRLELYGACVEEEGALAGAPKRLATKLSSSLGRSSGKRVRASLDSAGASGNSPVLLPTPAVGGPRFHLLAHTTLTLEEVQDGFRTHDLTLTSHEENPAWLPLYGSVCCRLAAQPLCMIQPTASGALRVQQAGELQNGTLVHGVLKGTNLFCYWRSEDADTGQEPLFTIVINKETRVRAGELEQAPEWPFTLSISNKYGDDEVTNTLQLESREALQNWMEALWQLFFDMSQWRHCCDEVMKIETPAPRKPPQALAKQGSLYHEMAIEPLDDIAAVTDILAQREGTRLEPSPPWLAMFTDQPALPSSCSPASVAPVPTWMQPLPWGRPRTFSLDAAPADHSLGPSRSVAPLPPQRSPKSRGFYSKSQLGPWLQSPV

fold change of mean GFP fluorescence against the dominant-negative mutant [fold]	Substance
5	GFP10–RhoA L63 (constitutively active RhoA mutant fused to GFP β-strand 10) (from UniProt P61586 1-193) (natural protein)
5	GFP10–RhoB L63 (constitutively active RhoB mutant fused to GFP β-strand 10) (from UniProt P62745 1-196) (natural protein)
